Key:
[1] = target: humanized PBD-C06 with A97 of the VH framework substituted by murine T97 (human); experiment: SPR; Biacore 3000; antibody captured on a CM5 chip via immobilised anti-mouse or anti-human antibody; monomeric Aβ peptides injected (240 µl, 30 µl/min), running buffer HBS-EP; 1:1 Langmuir binding model
[2] = target: humanized PBD-C06 (CDR-grafted IgG1:kappa version) (human); experiment: as above
Sequence of humanized PBD-C06 (CDR-grafted IgG1:kappa version) (human) (heavy, as listed by the source, chain 1 of 2): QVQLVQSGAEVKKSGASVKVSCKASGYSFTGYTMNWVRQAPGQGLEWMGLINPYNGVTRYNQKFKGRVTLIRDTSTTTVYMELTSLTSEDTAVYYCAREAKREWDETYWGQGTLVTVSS
Sequence of humanized PBD-C06 (CDR-grafted IgG1:kappa version) (human) (light, as listed by the source, chain 2 of 2): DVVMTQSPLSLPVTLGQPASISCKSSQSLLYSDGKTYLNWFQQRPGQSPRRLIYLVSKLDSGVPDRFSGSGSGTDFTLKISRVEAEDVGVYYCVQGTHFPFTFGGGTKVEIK

Sequence of humanized PBD-C06 with A97 of the VH framework substituted by murine T97 (human) (heavy, as listed by the source, chain 1 of 2): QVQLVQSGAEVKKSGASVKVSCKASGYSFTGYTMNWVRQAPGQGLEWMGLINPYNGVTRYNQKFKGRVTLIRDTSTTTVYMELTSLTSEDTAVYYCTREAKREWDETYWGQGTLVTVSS
Sequence of humanized PBD-C06 with A97 of the VH framework substituted by murine T97 (human) (light, as listed by the source, chain 2 of 2): as the sequence (light, as listed by the source, chain 2 of 2) above

Kd [1]: 5.3 nM | Kd [2]: 43.5 nM
Substance: pE3-Aβ(3–18) monomer (peptide)
